Holding throughout (test): SPR, mAb captured, C2 mutant analyte;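 also: Anti-C2 mAbs captured on goat anti-human IgG Biacore CM5 chips, alanine or serine C2 surface mutants flowed over at 37 °C, double-referenced sensorgrams fitted to a 1:1 binding model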
In general terms: Surface plasmon resonance follows binding to a sensor surface in real time, without labels.

Assay [1] has as its target T1, human C2 I320A (human, UniProt P06681 21-752).
T1 sequence: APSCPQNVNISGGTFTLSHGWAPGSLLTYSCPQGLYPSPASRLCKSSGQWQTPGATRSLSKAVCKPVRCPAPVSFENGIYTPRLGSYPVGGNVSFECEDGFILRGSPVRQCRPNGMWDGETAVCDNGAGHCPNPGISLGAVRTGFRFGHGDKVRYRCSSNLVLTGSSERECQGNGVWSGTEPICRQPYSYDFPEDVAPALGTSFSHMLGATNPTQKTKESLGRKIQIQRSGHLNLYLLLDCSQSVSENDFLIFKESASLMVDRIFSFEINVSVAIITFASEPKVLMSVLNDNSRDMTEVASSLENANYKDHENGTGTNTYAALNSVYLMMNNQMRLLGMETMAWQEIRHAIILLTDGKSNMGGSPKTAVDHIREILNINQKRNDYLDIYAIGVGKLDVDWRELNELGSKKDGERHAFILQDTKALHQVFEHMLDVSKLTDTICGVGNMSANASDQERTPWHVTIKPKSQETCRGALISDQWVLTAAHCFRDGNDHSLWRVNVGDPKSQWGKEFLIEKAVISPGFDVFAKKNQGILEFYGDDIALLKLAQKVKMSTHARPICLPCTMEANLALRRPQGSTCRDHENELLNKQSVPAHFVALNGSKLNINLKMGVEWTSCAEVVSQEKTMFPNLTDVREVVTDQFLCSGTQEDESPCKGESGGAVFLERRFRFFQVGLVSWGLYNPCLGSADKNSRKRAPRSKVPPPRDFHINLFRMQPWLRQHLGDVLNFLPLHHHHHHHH

The target in assay [2] is T2, human C2 H446A (human, UniProt P06681 21-752).
T2 sequence: T1 sequence with A300I, H426A

In assay [3] the target is T3, human C2 G432A (human, UniProt P06681 21-752).
T3 sequence: T1 sequence with A300I, G412A

Assay [4] concerns the target T4, human C2 E267A (human, UniProt P06681 21-752).
T4 sequence: T1 sequence with E247A, A300I

Numbering of substitutions follows the chain as printed.

B1: RF16-214 (antibody, V domains shown)
VH: EVQLLESGGGLVQPGGSLRLSCAASGFTFSWYQMMWVRQAPGKGLEWVSRIYPSGGGTAYADSVKGRFTISRDNSKNTLYLQMNSLRAEDTAVYYCARDAGYGDNWGQGTLVTVSS
VL: QSALTQPPSVSVSPGQTASITCSGDKLGEKYASWYQQKAGQSPVMVIYQDRKRPSGIPERFSGSNSGNTATLTISGTQAMDEADYYCQAWDTRAVVFGGGTKLTVLG
Regarding B1, the binding result in assay [1] is recorded as “no binding”. Besides, the Kd was found to be 153 nM in assay [2], 26 nM in assay [3] and 26.2 nM in assay [4].

Broadly, the Kd is the equilibrium constant for the complex coming apart. High values mean lower affinity, low ones higher affinity.
